Experimental data reported in the supplement of paper PMC9732359.
± gives the uncertainty stated by the source.

Test: protein stability index of a GFP-peptide fusion (yeast GPS) (PSI 1-4); higher = more stable; sorted into four equal gates, so the index is relative within each strain
In short: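 Each library plasmid carries Cherry plus GFP with a tiled 17-residue yeast protein peptide fused downstream, and the pooled library was carried in yeast. Mid-log cultures in leucine-free medium were sorted into four equal gates by GFP/Cherry ratio. Reads from Illumina sequencing of PCR-amplified plasmids from each gate were assigned to strains by barcodes. Per peptide, the protein stability index was computed as the summed products of gate read frequency and gate number.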

Row | Sequence | protein stability index (doa10∆) | protein stability index (pdr5∆) | protein stability index (san1∆) | protein stability index (ubr1∆)
1 | DIPGVRFKVVKVSGVSL [RPS23A] | 1.62 ± 0.084 | 1.11 ± 0.1 | 1.25 ± 0.29 | 1.06 ± 0.079
2 | PVGSYEREQCRAGGAAA [PRE7] | 3.02 ± 0.24 | 2.98 ± 0.18 | 3.32 ± 0.17 | 2.78 ± 0.097
3 | IDSSNLPLQAQQQLYGG [SWI1] | 2.91 ± 0.057 | 3.1 ± 0.062 | 2.75 ± 0.077 | 2.87 ± 0.043
4 | PEQYSDILLNERVWNIC [AAR2] | 3.38 ± 0.12 | 3.23 ± 0.22 | 2.68 ± 0.18 | 2.99 ± 0.18
5 | RCIGDSDNVSFEIQGVP [YMR129W/POM152] | 3.17 ± 0.1 | 3.39 ± 0.085 | 3.28 ± 0.059 | 3.35 ± 0.06
6 | DLLNAASIESADILCPL [IRR1] | 3.05 ± 0.2 | 2.24 ± 0.13 | 2.92 ± 0.12 | 2.79 ± 0.058
7 | VFHDPDHSMILPSGVLS [SMC3] | 1.71 ± 0.15 | 2.08 ± 0.089 | 2.04 ± 0.13 | 2 ± 0.047
8 | NKFMSIFLKRKDFTNKN [SRB8] | 2.38 ± 0.067 | 2.2 ± 0.082 | 3.03 ± 0.058 | 2.58 ± 0.065
9 | ILSDSPLELSAPIGKHY [DIS3] | 1.71 ± 0.13 | – | – | 2.39 ± 0.17
10 | MKFQESLKKVDEIKAQR [SMC4] | – | 3.57 ± 0.26 | 3.34 ± 0.17 | 3.57 ± 0.082
11 | VWNYTFMGTAFNQEGDY [PRP8] | – | 3.09 ± 0.19 | 2.73 ± 0.28 | –
12 | KIATRGVMLWKEFDETI [FAS1] | 3.02 ± 0.22 | 2.94 ± 0.22 | – | 2.94 ± 0.15
13 | DSIYTKPVKVALIFIFF [YJL039C/NUP192] | 1.69 ± 0.039 | 1.68 ± 0.033 | 1.5 ± 0.058 | 1.68 ± 0.023
14 | RFYELEESLTVLNCLRT [YJR042W/NUP85] | 2 ± 0.14 | 2.25 ± 0.12 | 1.7 ± 0.29 | 2.62 ± 0.11
15 | KITSPIRSVALNDSNVK [RRP42] | 2.6 ± 0.12 | 2.42 ± 0.11 | 2.59 ± 0.1 | 2.94 ± 0.078
16 | QPKAPRAPKVIHGQDFQ [ISW2] | 2.88 ± 0.089 | 3.02 ± 0.097 | 2.94 ± 0.05 | 3.19 ± 0.058
17 | SPVSSVHTANFSERGSN [MED2] | 2.71 ± 0.083 | 2.82 ± 0.068 | 2.53 ± 0.072 | 2.86 ± 0.044
18 | KPETPKGPIIISKNPSN [SIR2] | 2.92 ± 0.063 | 3 ± 0.052 | 2.67 ± 0.06 | 2.88 ± 0.046
19 | MIKESSTANPNIKLLNN [POP1] | 3.07 ± 0.2 | 2.9 ± 0.11 | 2.83 ± 0.087 | 2.74 ± 0.066
20 | VDNSPTTESNSRLKALN [YLR335W/NUP2] | 3.18 ± 0.07 | 3.12 ± 0.057 | 3.11 ± 0.058 | 2.97 ± 0.059
21 | SSNPQSAYVKAFYQKGN [SMC1] | 1.87 ± 0.049 | 1.98 ± 0.047 | 1.96 ± 0.052 | 1.95 ± 0.033
22 | RELTKNILWRIADKTTY [SIR4] | 3.02 ± 0.094 | 2.6 ± 0.065 | 2.68 ± 0.11 | 3.02 ± 0.05
23 | EDISKATHLPKDNVEHL [RPN9] | 2.91 ± 0.084 | 3.13 ± 0.076 | 3.12 ± 0.091 | 3.26 ± 0.061
24 | LQFHVATYMDNDIAGQP [RPO21] | 2.6 ± 0.07 | 2.53 ± 0.073 | 2.6 ± 0.053 | 2.66 ± 0.056
25 | AAAEIADEPVKASLLLH [FAS2] | 3.1 ± 0.18 | 3.01 ± 0.24 | 2.75 ± 0.19 | 1.17 ± 0.21
26 | VKEQTEAAKKSEKKAKK [RPL34A] | 3.36 ± 0.13 | 3.48 ± 0.094 | 3.18 ± 0.038 | 3.31 ± 0.067
27 | HDELIDSIPRDVAYLLK [YGL172W/NUP49] | 2.49 ± 0.12 | 2.82 ± 0.13 | 2.89 ± 0.055 | 3.05 ± 0.095

Row | Sequence | protein stability index (doa10∆) | protein stability index (pdr5∆) | protein stability index (san1∆) | protein stability index (ubr1∆)
28 | QVGLNFELSFTGAPPYY [YMR129W/POM152] | 2.35 ± 0.053 | 2.08 ± 0.061 | 1.58 ± 0.061 | 1.93 ± 0.031
29 | LKSGLPLSGLLFKNYRF [YMR129W/POM152] | 3.65 ± 0.18 | 2.52 ± 0.2 | 3.63 ± 0.057 | –
30 | ANAVQNNNGNSAASKKK [SRP21] | 3.06 ± 0.11 | 3.29 ± 0.11 | 2.96 ± 0.092 | 2.93 ± 0.11
31 | GNLSGKRVDFSGRTVIS [RPO31] | 3 ± 0.073 | 3.01 ± 0.081 | 3.36 ± 0.073 | 3.17 ± 0.089
32 | LHVLVAHKLKKSLDSIP [FAS2] | 2.31 ± 0.091 | 2.1 ± 0.088 | 1.83 ± 0.24 | 1.68 ± 0.073
33 | TDIKQFLELTRRADVKT [RPL38] | 2.95 ± 0.17 | 3.29 ± 0.17 | – | –
34 | DPNEVKYLYLRAVGGEV [RPL12A] | 1.77 ± 0.073 | 1.89 ± 0.12 | 1.98 ± 0.18 | 1.53 ± 0.039
35 | KDLVEIKKEEGKIDEAA [RPN5] | – | – | – | 3.62 ± 0.22
36 | LEKGEIELSDGSTFKVN [YJL039C/NUP192] | 3.02 ± 0.079 | 3.1 ± 0.067 | 2.83 ± 0.073 | 2.95 ± 0.052
37 | TRRFVNVTLVNGKRRMN [RPS30A] | 1.67 ± 0.055 | 1.51 ± 0.038 | 1.73 ± 0.084 | 2.37 ± 0.038
38 | GKKRFRVVTVDGKLIDI [SMC4] | – | 3.49 ± 0.14 | 3.31 ± 0.076 | 3.55 ± 0.18
39 | STIPTRENGKGGQIAHI [ROX3] | 3.01 ± 0.11 | 3.17 ± 0.092 | 2.98 ± 0.052 | 2.97 ± 0.19
40 | AHNKPSLFSKIKTFFTQ [YAR002W/NUP60] | 2.37 ± 0.079 | 2.85 ± 0.076 | 2.66 ± 0.064 | 2.73 ± 0.065
41 | DRNLTEFDSTDTSLCIN [RRI1] | 2.98 ± 0.12 | 3 ± 0.12 | 2.59 ± 0.13 | 2.79 ± 0.067
42 | MLLANISVARKIYDAFP [DIS3] | 1.69 ± 0.04 | 1.91 ± 0.041 | 2 ± 0.093 | 1.73 ± 0.041
43 | LHLAVGKKWFEVSQFLI [NAS6] | 2.12 ± 0.076 | 1.63 ± 0.059 | 1.63 ± 0.091 | 1.51 ± 0.073
44 | LFGGRHYLFNTFTFTAH [SWP82] | 2.03 ± 0.042 | 2.1 ± 0.035 | 1.69 ± 0.061 | 1.82 ± 0.024
45 | DIIQGNPLMYSGGNNTA [PCI8] | 3.17 ± 0.082 | 3.13 ± 0.08 | 3.32 ± 0.047 | 3.24 ± 0.072
46 | CLDRCKEQYNRYRDLMI [MTR3] | 2.64 ± 0.074 | 2.62 ± 0.046 | 2.69 ± 0.054 | 2.88 ± 0.063
47 | SPYNADFDGDEMNLHVP [RPO21] | 3.15 ± 0.076 | 3.27 ± 0.068 | 3.15 ± 0.078 | 3.1 ± 0.061
48 | DTGTLDTKSVVGLVMFS [RPN2] | 2.67 ± 0.083 | 2.66 ± 0.084 | 2.91 ± 0.075 | 2.42 ± 0.069
49 | TQVYKLGLAKSVHHARV [RPS9A] | 1.94 ± 0.089 | 1.48 ± 0.053 | 1.55 ± 0.14 | 1.24 ± 0.066
50 | VNAMRVLYYRDARSSRN [PRE4] | – | 3.16 ± 0.23 | 2.57 ± 0.26 | –
51 | NELERNRKIYQFTLYDR [SMC3] | 1.5 ± 0.23 | 2.45 ± 0.1 | 2.31 ± 0.14 | 2.88 ± 0.1
52 | DTSKALLNVSVNITKFS [SKI6] | 2.27 ± 0.08 | 2.57 ± 0.068 | 2.72 ± 0.073 | 2.42 ± 0.072
53 | NIVQVFKKAAPSPISHV [RPB2] | 2.2 ± 0.11 | 2.33 ± 0.071 | 2.16 ± 0.075 | 2.09 ± 0.043
54 | PTLPRSDRECPKCHSRE [RPB9] | 2.79 ± 0.052 | 2.92 ± 0.056 | 2.82 ± 0.053 | 2.84 ± 0.043
